Data as given in patent US20060251646A1 (CELLACT PHARMA, published 2006).

T1: peptide 6 (TIRC7 derived peptide DLPDASVNGWSSDE)
T1 construct: Fragment of TIRC7, used coated on ELISA plates at 100 ng peptide/well; also called Peptid6
T1 peptide: DLPDASVNGWSSDE

B1: murine Neliximab (murine anti-human TIRC7 monoclonal antibody, clone #17) (antibody, V domains shown)
VH: EVQLQQSGPELVKPGASVKMSCKASGYTFTTYVMHWVKQKPGQGLEWIGYINPYNDGTNYNEKFKGKATLTSDKSSSTAYMELSTLTSEDSAVYYCAEFITKTVGGSNWYLDVWGAGTTVTVSS
VL: QIVLTQSPAIMSASPGEKVTMTCSASSSISYIHWFQQKPGTSPKRWIYDTSKLPSGVPARFSGSGSGTSYSLTISSMEAEDAATYYCHQRSSYTWTFGGGTKLEIKR
notes: also called murine anti-human TIRC7 mAb; murine mAb
B2: Neliximab (chimeric murine/human anti-human TIRC7 monoclonal antibody) (antibody, V domains shown)
VH: B1 VH
VL: QIVLTQSPAIMSASPGEKVTMTCSASSSISYIHWFQQKPGTSPKRWIYDTSKLPSGVPARFSGSGSGTSYSLTISSMEAEDAATYYCHQRSSYTWTFGGGTKLEIK
notes: also called chimeric Neliximab; chimeric anti-human TIRC7 mAb

How the values were obtained:
[1] = target: human T-cell immune response cDNA 7 (TIRC7) protein (human, UniProt Q13488 1-830); test: cell-based or functional assay
[2] = target: T1, peptide 6 (TIRC7 derived peptide …); test: method not stated

Chain of human T-cell immune response cDNA 7 (TIRC7) protein (Q13488 whole entry): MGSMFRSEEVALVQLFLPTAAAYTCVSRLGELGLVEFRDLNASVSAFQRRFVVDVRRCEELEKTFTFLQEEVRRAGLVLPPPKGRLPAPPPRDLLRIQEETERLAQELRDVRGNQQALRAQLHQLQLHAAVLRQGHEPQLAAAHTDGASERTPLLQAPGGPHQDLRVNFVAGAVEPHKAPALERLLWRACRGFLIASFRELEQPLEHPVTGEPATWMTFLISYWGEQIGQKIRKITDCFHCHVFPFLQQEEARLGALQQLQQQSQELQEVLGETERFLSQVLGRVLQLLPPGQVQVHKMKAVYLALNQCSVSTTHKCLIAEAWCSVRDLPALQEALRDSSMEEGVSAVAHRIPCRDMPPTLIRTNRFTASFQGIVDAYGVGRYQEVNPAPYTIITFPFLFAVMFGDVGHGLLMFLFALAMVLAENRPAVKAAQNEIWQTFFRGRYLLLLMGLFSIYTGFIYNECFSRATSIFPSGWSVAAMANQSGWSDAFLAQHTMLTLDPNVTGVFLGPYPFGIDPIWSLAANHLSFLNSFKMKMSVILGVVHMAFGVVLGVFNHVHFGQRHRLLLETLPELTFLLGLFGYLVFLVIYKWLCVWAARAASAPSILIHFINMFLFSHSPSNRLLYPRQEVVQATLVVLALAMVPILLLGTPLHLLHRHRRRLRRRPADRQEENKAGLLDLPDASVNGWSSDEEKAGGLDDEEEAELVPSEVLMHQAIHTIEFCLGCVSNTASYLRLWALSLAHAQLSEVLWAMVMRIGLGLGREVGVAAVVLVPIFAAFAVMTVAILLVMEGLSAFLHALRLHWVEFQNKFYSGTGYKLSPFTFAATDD

Row | Binder | Inhibition of cytokine secretion (IFNγ) calculated relative to the isotype control at the same concentration, PHA-stimulated human PBMC, 10 µg/ml murine Neliximab [1] | Inhibition of cytokine secretion (IFNγ) calculated relative to the isotype control at the same concentration, PHA-stimulated human PBMC, 50 µg/ml murine Neliximab [1] | Inhibition of cytokine secretion (IFNγ) calculated relative to the isotype control at the same concentration, PHA-stimulated human PBMC, 100 µg/ml murine Neliximab [1] | Inhibition of cytokine secretion (IFNγ) calculated relative to the isotype control at the same concentration, PHA-stimulated human PBMC, 200 µg/ml murine Neliximab [1] | Kd [2]
1 | B1 | 78% | 39% | 20% | 3% | 1 nM
2 | B2 |  |  |  |  | 1 nM
